Results: article PMC6355839, “Functional role of PGAM5 multimeric assemblies and their polymerization into filaments” (Nature Communications, 2019)
Residue numbers refer to the chain shown, from its start. In names and notes the source's numbering stands.

B1: ∆48 PGAM5 (residues 49–289), wild type (domain or fragment, UniProt Q96HS1 49-289, looked up)
chain: GGARPGPGVWDPNWDRREPLSLINVRKRNVESGEEELASKLDHYKAKATRHIFLIRHSQYHVDGSLEKDRTLTPLGREQAELTGLRLASLGLKFNKIVHSSMTRAIETTDIISRHLPGVCKVSTDLLREGAPIEPDPPVSHWKPEAVQYYEDGARIEAAFRNYIHRADARQEEDSYEIFICHANVIRYIVCRALQFPPEGWLRLSLNNGSITHLVIRPNGRVALRTLGDTGFMPPDKITRS
notes: PGAM5 long isoform (PGAM5L, residues 1-289), residues 49-289: linker domain with the multimerization motif (58-63) and the PGAM phosphatase domain; His6 is followed by a TEV site (ENLYFQS); the methods describe no TEV cleavage; also called Δ48 PGAM5; ∆48 WT; source: E. coli BL21 DE3 pLysS, purified (Ni-NTA, SEC on Superose 6)
B2: ∆48 PGAM5 R65A (domain or fragment, UniProt Q96HS1 49-289, looked up)
chain: B1 chain with R17A
notes: PGAM5 long isoform (PGAM5L), residues 49-289, R65A; also called ∆48 R65A; source: E. coli BL21 DE3 pLysS, purified (Ni-NTA, SEC)
B3: ∆48 PGAM5 Y198E (domain or fragment, UniProt Q96HS1 49-289, looked up)
chain: B1 chain with Y150E
notes: PGAM5 long isoform (PGAM5L), residues 49-289, Y198E; also called ∆48 Y198E; source: E. coli BL21 DE3 pLysS, purified (Ni-NTA, SEC)
B4: ∆48 PGAM5 R288E (domain or fragment, UniProt Q96HS1 49-289, looked up)
chain: B1 chain with R240E
notes: PGAM5 long isoform (PGAM5L), residues 49-289, R288E; also called ∆48 R288E; source: E. coli BL21 DE3 pLysS, purified (Ni-NTA, SEC)
B5: ∆48 PGAM5 H105A (domain or fragment, UniProt Q96HS1 49-289, looked up)
chain: B1 chain with H57A
notes: PGAM5 long isoform (PGAM5L), residues 49-289, H105A; also called ∆48 H105A; source: E. coli BL21 DE3 pLysS, purified (Ni-NTA, SEC)
B6: ∆48 PGAM5 R269E (domain or fragment, UniProt Q96HS1 49-289, looked up)
chain: B1 chain with R221E
notes: PGAM5 long isoform (PGAM5L), residues 49-289, R269E; source: E. coli BL21 DE3 pLysS, purified (Ni-NTA, SEC)
B7: ∆90 PGAM5 (residues 91–289), isolated phosphatase domain, wild type (domain or fragment, UniProt Q96HS1 91-289, looked up)
chain: HYKAKATRHIFLIRHSQYHVDGSLEKDRTLTPLGREQAELTGLRLASLGLKFNKIVHSSMTRAIETTDIISRHLPGVCKVSTDLLREGAPIEPDPPVSHWKPEAVQYYEDGARIEAAFRNYIHRADARQEEDSYEIFICHANVIRYIVCRALQFPPEGWLRLSLNNGSITHLVIRPNGRVALRTLGDTGFMPPDKITRS
notes: PGAM5 long isoform (PGAM5L), residues 91-289, phosphatase domain; His6 followed by a TEV site (ENLYFQS); cleavage not described; also called Δ90 PGAM5; source: E. coli BL21 DE3 pLysS, purified (Ni-NTA, SEC on Superose 6)
B8: PGAM5 MM peptide (linker domain residues 54–67, multimerization motif) (peptide)
peptide: GPGVWDPNWDRREP
notes: PGAM5 linker domain residues 54-67, holding the multimerization motif WDxxWD (58-63); source: synthetic peptide, bought: Elim Biopharma
B9: ∆90 PGAM5 H105A (residues 91–289), catalytically dead phosphatase domain (domain or fragment, UniProt Q96HS1 91-289, looked up)
chain: B7 chain with H15A
notes: PGAM5 long isoform (PGAM5L), residues 91-289, phosphatase domain, H105A; His6 followed by a TEV site (ENLYFQS); cleavage not described; also called Δ90 PGAM5 H105A; ∆90 H105A PGAM5; source: E. coli BL21 DE3 pLysS, purified (Ni-NTA, SEC)
B10: ∆48 PGAM5 A4 (WDxxWD of the MM replaced by AAxxAA) (domain or fragment, UniProt Q96HS1 49-289, looked up)
chain: B1 chain with W10A, D11A, W14A, D15A
notes: PGAM5 long isoform (PGAM5L), residues 49-289, W58A/D59A/W62A/D63A; also called ∆48 A4; A4 mutant; source: E. coli BL21 DE3 pLysS, purified (Ni-NTA, SEC)

Key:
[1] = biological target: the molecule itself; assay: SEC; Superose 6 10/300 GL Increase; 20 mM Tris-Cl pH 8.0, 150 mM NaCl, 0.5 mM TCEP; salt titration up to 1 M NaCl
[2] = biological target: the molecule itself; assay: cryo-EM structure; 2D class averages only (top view, 4.5 Å); 0.10 mg/mL in 20 mM Tris-Cl pH 8.0, 600 mM NaCl, 0.5 mM TCEP
[3] = biological target: the molecule itself; assay: cell-based or functional assay
[4] = biological target: the molecule itself; assay: negative-stain electron microscopy; samples from SEC peaks (~0.01–0.1 mg/mL), 0.75% uranyl formate; 150 mM NaCl buffer; filaments decompose into rings at 300 and 750 mM NaCl
[5] = biological target: B9; assay: crystal structure; ∆90 H105A PGAM5 7.5 mg/mL with ASK1 peptide:MM peptide:protein 3:3:1; 100 mM Tris-Cl pH 7.0, 200 mM MgCl2, 10% PEG 8000; 2.6 Å; twelve molecules in the asymmetric unit; conditions: both partners purified
[6] = biological target: the molecule itself; assay: as above
[7] = biological target: the molecule itself; assay: crystal structure; ∆90 H105A PGAM5 5 mg/mL with ASK1 peptide 5:1, without MM peptide; 100 mM HEPES pH 7.5, 200 mM MgCl2, 30% PEG 400; 1.7 Å; two molecules in the asymmetric unit

| Binder | stoichiometry N [1] | Kcat/Km of dephosphorylation of the ASK1 phosphopeptide (20 nM enzyme) [3] [M⁻¹ s⁻¹] | further results |
| --- | --- | --- | --- |
| B1 | 2 | 19800 | stoichiometry N [2]: 12 |
| B2 | 2 | 3170 |  |
| B3 | 2 | 10000 |  |
| B4 |  | 13700 | stoichiometry N [4]: 12 |
| B5 |  |  | binding result [1]: binds |
| B6 |  |  | binding result [4]: binds |
| B7 | 2 |  |  |
| B8 |  |  | binding result [5]: binds |
| B9 |  |  | stoichiometry N [6]: 12; stoichiometry N [7]: 2 |
| B10 | 2 |  |  |
